Experimental data published in patent US20250270341A1 (Alector, published 2025).

How the values were obtained:
Assay in all cases: FACS, hybridoma supernatant
[1] = target: T1, Full length mouse CD98hc on CHO cells (mouse, UniProt P10852 1-526)
T1 construct: CHO cells stably overexpressing it; also called CHO-mouse CD98hc; CHO-mCD98hc
T1 sequence: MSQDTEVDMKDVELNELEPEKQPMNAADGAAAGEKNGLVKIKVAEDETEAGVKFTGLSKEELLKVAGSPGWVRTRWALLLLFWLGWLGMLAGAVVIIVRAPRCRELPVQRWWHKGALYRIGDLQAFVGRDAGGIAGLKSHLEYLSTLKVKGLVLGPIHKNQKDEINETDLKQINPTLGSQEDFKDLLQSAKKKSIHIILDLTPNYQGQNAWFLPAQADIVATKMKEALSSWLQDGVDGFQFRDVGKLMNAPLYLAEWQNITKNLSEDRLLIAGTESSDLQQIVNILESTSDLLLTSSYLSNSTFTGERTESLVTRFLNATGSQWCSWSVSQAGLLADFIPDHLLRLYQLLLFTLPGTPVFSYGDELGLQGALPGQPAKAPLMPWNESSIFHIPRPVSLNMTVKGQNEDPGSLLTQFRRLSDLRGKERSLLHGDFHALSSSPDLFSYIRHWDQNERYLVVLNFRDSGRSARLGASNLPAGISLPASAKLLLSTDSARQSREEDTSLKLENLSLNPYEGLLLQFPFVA
From the text: The IgG positive hybridoma supernatants (898 in total) were initially screened for their ability to differentially bind CHO cells overexpressing human or mouse CD98hc cells compared to CHO parental cells by FACS. Overexpressing cells were harvested, washed, and labeled with various concentrations and combinations of CellTrace cell proliferation dyes CFSE and Violet (ThermoFisher, Cat #C34554 and Cat #34557, respectively) to create uniquely barcoded cell populations. Barcoded cells (5×10⁴ of each cell population) were aliquoted into 96-well U-bottom plates and incubated with 50 μl of hybridoma cell culture supernatant or 1 μg/ml of commercially available purified mouse anti-human CD98hc monoclonal antibody (Sigma Aldrich, Cat #SAB 4700503) and rat anti-mouse CD98hc antibody (Bio-Rad Laboratories, Hercules, CA, Cat #MCA2684) on ice for 30 minutes. […] Following this secondary antibody incubation, the cells were again washed twice with ice-cold FACS buffer and resuspended in a final volume of 50 μl of FACS buffer containing 0.25 μl/well propidium iodide (BD Biosciences, Cat #556463). Binding intensity on cells was analyzed using the FACS Canto system (BD Biosciences), with sorting gates drawn to exclude dead (i.e., propidium iodide-positive) cells. For each barcoded cell population, the ratio of APC Mean Fluorescence Intensity (MFI) divided by secondary antibody MFI was calculated for each anti-CD98hc hybridoma supernatant tested and reported in Table 5.

[2] = target: T2, Full length human CD98hc on CHO cells (human)
T2 construct: CHO cells stably overexpressing it; also called CHO-human CD98hc; CHO-huCD98hc
T2 chain: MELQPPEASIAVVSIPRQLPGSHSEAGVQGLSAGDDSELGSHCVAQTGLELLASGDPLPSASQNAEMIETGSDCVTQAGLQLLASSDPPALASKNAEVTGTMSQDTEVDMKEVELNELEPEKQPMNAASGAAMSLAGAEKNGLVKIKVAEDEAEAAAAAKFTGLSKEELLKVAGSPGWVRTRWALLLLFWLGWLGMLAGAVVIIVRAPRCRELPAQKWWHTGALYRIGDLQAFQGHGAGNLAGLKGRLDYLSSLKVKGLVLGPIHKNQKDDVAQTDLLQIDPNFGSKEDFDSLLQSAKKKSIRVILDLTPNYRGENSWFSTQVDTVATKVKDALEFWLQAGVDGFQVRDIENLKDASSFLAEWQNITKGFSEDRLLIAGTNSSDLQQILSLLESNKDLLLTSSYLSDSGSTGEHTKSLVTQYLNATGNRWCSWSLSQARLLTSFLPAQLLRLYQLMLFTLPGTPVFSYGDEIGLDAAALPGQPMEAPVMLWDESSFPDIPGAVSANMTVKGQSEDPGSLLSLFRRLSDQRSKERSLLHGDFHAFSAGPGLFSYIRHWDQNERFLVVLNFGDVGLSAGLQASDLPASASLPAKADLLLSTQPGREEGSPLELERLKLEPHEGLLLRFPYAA

[3] = target: T1, Full length mouse CD98hc on CHO cells; remark: listed apart in the source
[4] = target: T3, human CD98hc endogenously expressed on HCMEC/D3 cells (human)
T3 construct: human brain endothelial cell line
T3 chain: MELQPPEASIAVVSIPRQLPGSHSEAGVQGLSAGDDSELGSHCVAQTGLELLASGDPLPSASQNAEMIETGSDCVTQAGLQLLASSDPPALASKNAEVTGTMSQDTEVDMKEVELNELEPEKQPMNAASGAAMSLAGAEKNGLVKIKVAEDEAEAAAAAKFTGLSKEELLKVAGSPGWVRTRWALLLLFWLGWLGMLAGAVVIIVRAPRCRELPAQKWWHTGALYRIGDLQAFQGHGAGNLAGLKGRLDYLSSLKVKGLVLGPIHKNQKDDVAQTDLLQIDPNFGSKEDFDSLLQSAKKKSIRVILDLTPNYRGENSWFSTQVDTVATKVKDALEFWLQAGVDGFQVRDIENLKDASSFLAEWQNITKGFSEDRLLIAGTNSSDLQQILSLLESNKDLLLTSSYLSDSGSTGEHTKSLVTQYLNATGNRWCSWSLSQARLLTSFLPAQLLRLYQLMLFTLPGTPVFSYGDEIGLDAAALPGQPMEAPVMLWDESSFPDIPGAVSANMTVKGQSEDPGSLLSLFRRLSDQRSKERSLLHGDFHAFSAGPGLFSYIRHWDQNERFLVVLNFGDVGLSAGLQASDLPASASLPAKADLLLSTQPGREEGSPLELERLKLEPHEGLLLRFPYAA

Binder | binding result [1] | MFI ratio over secondary antibody [2] | MFI ratio over secondary antibody [3] | MFI ratio over secondary antibody [4]
CD98HC.04.063 (antibody, V domains shown, hybridoma IgG) VH: EVKLEESGGGLVQPGGSMILSCVASGFTFSNSWMNWVRQSPEKGLEWVAEIRLRSNNYATHYAESVKGRFTISRDDSKSTVYLQMNNLRAEDTGIYYCSRGDPGAYWGQGTLVTVSA VL: DIQMTQSSSYLSVSLGNRVTITCKASDHIKNWLAWFQQKPGNAPRLLISGATILETGVPSRFSGSGSGKDYTLSITSLQTEDVATYYCQQYWSTPYTFGGGTKLEIK | no binding | 34.4 | 1.2 | 124
CD98HC.04.062 (antibody, V domains shown, hybridoma IgG) VH: EVQLVESGGDLVKPGGSLKLSCTASRFAFSTYDMSWVRQTPEKRLEWVAYISSGGGSTYFPDTVKGRFTISRDNAKNTLYLQMSSLKSEDTAMYYCARQDGHYPWFPYWGQGTLVTVSA VL: DIVMSQSPSSLAVSVGEKVTMSCKSSQSLLYSGNQKTYLAWYQQKPGQSPKPLIYWASTRESGIPDRFTGSGSGTDFTLTISSVKAEDLAVYYCQQYYSYPPTFGAGTKLELK | no binding | 25.1 | 1.3 | 91.8
CD98HC.04.064 (antibody, V domains shown, hybridoma IgG) VH: QVQLQQPGAELVRPGASVKLSCKASGYTFTSYWMNWVRQRPGQGLEWIGLIDPSDSETHYNQMFKDRATLTVDKSSSTAYMQLSSLTSADPAVYYCARASYGKGYFDYWGQGTTLTVSS VL: not shown | no binding | 46.6 | 1.2 | 277
CD98HC.04.058 (antibody, V domains shown, hybridoma IgG) VH: QVQLQQSGAELVRPGVSVKISCKASGYTFTDHTMHWVKQSHARSLEWIGVISTYFGDASYNPKFKGKATMTVDKSSNTAYMELARLTSEDSAIYYCARVGGRLRLGYYFDYWGQGTTLTVSS VL: NIMMTQSPSSLAVSAGEKVTMNCKSSQTVLYSSNQKNYLAWYQQKPGQSPKLLIYWASTRESGVPDRFTGSGSGTDFTLTISSVQVEDLAVYYCHQYLSSYTFGGGTKLEIK | no binding | 33 | 1.2 | 158
CD98HC.03.004 (antibody, V domains shown, hybridoma IgG) VH: DVQLQESGPGLVKPSQSLSLTCTVTGYSITNNYAWNWIRRFPGNKLEWMAYISYSGYTSYNPSLKSRISITRDTSKNQFFLQLNSVTTEDTATYYCTGYFYYYGGGSFDYWGQGTTLTVSS VL: QAVVTQESALTTSPGETVTLTCRSSTGAVTTSNFANWVQEKPDHLFTGLIRGSNNRAPGVPARFSGSLIGDKAALTITGARTEDEAIYFCALWYSDHWVFGGGTKLTVL | no binding | 34.4 | 1 | 189
CD98HC.03.010 (antibody, V domains shown, hybridoma IgG) VH: EVQLQQSGTELVKPGASVKLSCTASGLDIKDTYLHWVKQRPEQGLEWIGKIDPANGNTKYNPKFQGKATITADTSSNTAYLQLSSLTSEDTAVHYCTTPYYSGSSYGDYWGQGTTLTVSS VL: QIVLTQSPAIMSASPGEKVTLTCSASSSVSSSYLYWYQQKPGSSPKLWIYSTSNLASGVPARFSGSGSGTSYSLTISSMEAEDAASYFCHQWSRYPLTFGAGTKLELK | no binding | 25.8 | 1 | 190
CD98HC.04.046 (antibody, V domains shown, hybridoma IgG) VH: QIQLVQSGPVLKKPGETVKISCKASGYTFTNFGMNWVKQAPGKGLKWMGWIDTYTREPTYVDDFKGRFAFSLETSVTTAYLQINDLKNEDSATYFCARGESHWYFDVWGAGTTVTVSS VL: QIVLTQSPAIMSASLGERVTMTCIVSSSVSSSYLYWYQQKPGSSPKLWIYSTSILASGVPGRFSGSGSGTSYSLTISSMEAEDAATYYCHQYHRSPPTFGGGTKLEIK | no binding | 27.7 | 1.2 | 147
